Experiments:
Test in all cases: co-IP; mCherry-Rac1 transiently expressed in HEK293T for 16 h, precipitated with the RFP-TRAP kit (Chromotek); endogenous RhoGDI by Western blot, quantified (n = 3)
[1] = target: mCherry-Rac1 Y64F (UniProt P63000)
[2] = target: mCherry-Rac1 F28L (UniProt P63000)
[3] = target: mCherry-Rac1 P29S (UniProt P63000)
[4] = target: mCherry-Rac1 G12V (UniProt P63000)

Measured: reduction of co-precipitated GDI against Rac1 WT

RhoGDI (endogenous, HEK293T) (from UniProt P52565 1-204) (natural protein)
50%: all assays above

Source: article PMC8274835
